# Test results reported in publication PMC11514443 (Structure (London, England : 1993), 2019).
# Biological target: MORC3-CW E431A mutant (human) (UniProt Q14149)
# Experiment: other fluorescence titration
# Chain of MORC3-CW E431A mutant (human) (Q14149 401-455 E431A): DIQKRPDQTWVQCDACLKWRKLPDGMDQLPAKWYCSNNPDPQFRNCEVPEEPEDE
substance,measurement,value
NS1 peptide trimethylated at K229 (residues 222-230 of NS1),Kd,57 µM
